Assays:
[1] = system: T1, CC1(C(=O)O)OC[C@H]2O[C@@H](Oc3ccc([N+](=O)[O-])cc3)[C@H](O)[C@@H](O)[C@H]2O1; test: discontinuous pNP release, A405; assay type: biochemical, Bacillus sp. HMA207; conditions: 50 mM HEPES-NaOH pH 7.5, 37 °C
T1 construct: full length 469 aa, no signal peptide; pET-32b, N-terminal His5 tag, E. coli BL21(DE3)CodonPlus delta-lacZ, Ni-purified
From the text: (§1) discontinuous pNP release, A405 on ORF1119 (PvGal-ase)

[2] = system: T2, O=[N+]([O-])c1ccc(O[C@@H]2O[C@H](CO)[C@H](O)[C@H](O)[C@H]2O)cc1; test: discontinuous pNP release, A405; assay type: biochemical, Bacillus sp. HMA207; conditions: 50 mM HEPES-NaOH pH 7.5
T2 construct: full length 469 aa, no signal peptide; pET-32b, N-terminal His5 tag, E. coli BL21(DE3)CodonPlus delta-lacZ, Ni-purified
From the text: as §1

[3] = system: T3, O=[N+]([O-])c1ccc(O[C@@H]2O[C@H](CO)[C@@H](O)[C@H](O)[C@H]2O)cc1; test: discontinuous pNP release, A405; assay type: biochemical, Bacillus sp. HMA207; conditions: 50 mM HEPES-NaOH pH 7.5
T3 construct: full length 469 aa, no signal peptide; pET-32b, N-terminal His5 tag, E. coli BL21(DE3)CodonPlus delta-lacZ, Ni-purified
From the text: as §1

[4] = system: T4, C[C@H]1O[C@@H](Oc2ccc([N+](=O)[O-])cc2)[C@H](O)[C@@H](O)[C@H]1O; test: discontinuous pNP release, A405; assay type: biochemical, Bacillus sp. HMA207; conditions: 50 mM HEPES-NaOH pH 7.5
T4 construct: full length 469 aa, no signal peptide; pET-32b, N-terminal His5 tag, E. coli BL21(DE3)CodonPlus delta-lacZ, Ni-purified
From the text: as §1

ORF1119 (PvGal-ase) = target: T5, ORF1119 (PvGal-ase) (Bacillus sp. HMA207, UniProt Z9IVQ1LJN5, E163A); test: X-ray crystal structure, […] Å; assay type: binding; conditions: co-crystallised with pNP-β-D-PvGal, pNP lost during crystal growth; active site; phosphate-citrate pH 5.2
T5 construct: full length 469 aa, no signal peptide; pET-32b, N-terminal His5 tag, E. coli BL21(DE3)CodonPlus delta-lacZ, Ni-purified

ORF1119 (PvGal-ase) (Bacillus sp. HMA207; Y436A)
Km [1]: 800 ± 180 µM
kcat [1]: 0.68 ± 0.03 s⁻¹
kcat/Km [1]: 860 M⁻¹ s⁻¹

ORF1119 (PvGal-ase) (Bacillus sp. HMA207; S427E)
Km [2]: 890 ± 90 µM
kcat [2]: 0.13 ± 0.002 s⁻¹
kcat/Km [2]: 149 M⁻¹ s⁻¹
Km [3]: 460 ± 90 µM
kcat [3]: 0.05 ± 0.001 s⁻¹
kcat/Km [3]: 98 M⁻¹ s⁻¹
Km [4]: 470 ± 60 µM
kcat [4]: 0.91 ± 0.02 s⁻¹
kcat/Km [4]: 2000 M⁻¹ s⁻¹

ORF1119 (PvGal-ase) (Bacillus sp. HMA207; N430A)
Km [1]: 900 ± 160 µM
kcat [1]: 7.0 ± 0.2 s⁻¹
kcat/Km [1]: 7700 M⁻¹ s⁻¹

ORF1119 (PvGal-ase) (Bacillus sp. HMA207)
Km [2]: 3300 ± 400 µM
kcat [2]: 0.20 ± 0.005 s⁻¹
kcat/Km [2]: 60 M⁻¹ s⁻¹
Km [3]: 7400 ± 400 µM
kcat [3]: 0.10 ± 0.002 s⁻¹
kcat/Km [3]: 14 M⁻¹ s⁻¹
Km [4]: 1900 ± 100 µM
kcat [4]: 1.6 ± 0.02 s⁻¹
kcat/Km [4]: 830 M⁻¹ s⁻¹
Km ([1]; 37.0 °C): 810 ± 140 µM
kcat ([1]; 37.0 °C): 5.2 ± 0.2 s⁻¹
kcat/Km ([1]; 37.0 °C): 6300 M⁻¹ s⁻¹

ORF1119 (PvGal-ase) (Bacillus sp. HMA207; S427A)
Km [1]: 1920 ± 450 µM
kcat [1]: 4.4 ± 0.3 s⁻¹
kcat/Km [1]: 2300 M⁻¹ s⁻¹

C[C@@]1(C(=O)O)OC[C@H]2OC(O)[C@H](O)[C@@H](O)[C@H]2O1 (stereo partly shown) [PvGal]
X-ray crystal structure, 2.45 Å (ORF1119 (PvGal-ase)): In the complex structure, clear electron density is observed for the PvGal ligand

ORF1119 (PvGal-ase) (Bacillus sp. HMA207; Y436F)
Km [1]: 530 ± 90 µM
kcat [1]: 6.5 ± 0.2 s⁻¹
kcat/Km [1]: 12000 M⁻¹ s⁻¹

ORF1119 (PvGal-ase) (Bacillus sp. HMA207; K434A)
Km [1]: 730 ± 120 µM
kcat [1]: 8.8 ± 0.2 s⁻¹
kcat/Km [1]: 12000 M⁻¹ s⁻¹

ORF1119 (PvGal-ase) (Bacillus sp. HMA207; N430Y)
Km [1]: 370 ± 80 µM
kcat [1]: 7.7 ± 0.2 s⁻¹
kcat/Km [1]: 21000 M⁻¹ s⁻¹

From PMC6090015, “Identification and characterization of a novel β-D-galactosidase that releases pyruvylated galactose” (Scientific Reports, 2018)
